# Experimental data from patent US7005413 (Amgen, dated 2006).
# Positions count from the first letter of the chain named. Names may count otherwise.
# B1: muOPG [22-200] (receptor)
# chain: ETLLPKYLHYDPETGHQLLCDKCAPGTYLKQHCTVRRKTLCVPCPDHSYTDSWHTSDECVYCSPVCKELQSVKQECNRTHNRVCECEEGRYLEIEFCLKHRSCPPGSGVVQAGTPERNTVCKKCPDGFFSGETSSKAPCIKHTNCSTFGLLLIQKGNATHDNCCSGNREATQKCGIDVT
# notes: C-terminal truncation ending at threonine 200, expressed in 293 cells; also called CT 200
# B2: muOPG [22-212] (receptor)
# chain: ETLLPKYLHYDPETGHQLLCDKCAPGTYLKQHCTVRRKTLCVPCPDHSYTDSWHTSDECVYCSPVCKELQSVKQECNRTHNRVCECEEGRYLEIEFCLKHRSCPPGSGVVQAGTPERNTVCKKCPDGFFSGETSSKAPCIKHTNCSTFGLLLIQKGNATHDNCCSGNREATQKCGIDVTLCEEAFFRFAVP
# notes: also called CT212
# B3: Rat OPG [22-401] produced in transgenic mice (receptor)
# chain: ETFPPKYLHYDPETGRQLLCDKCAPGTYLKQHCTVRRKTLCVPCPDYSYTDSWHTSDECVYCSPVCKELQTVKQECNRTHNRVCECEEGRYLELEFCLKHRSCPPGLGVLQAGTPERNTVCKRCPDGFFSGETSSKAPCRKHTNCSSLGLLLIQKGNATHDNVCSGNREATQNCEIDVTLCEEAFFRFAVPTKIIPNWLSVLVDSLPGTKVNAESVERIKRRHSSQEQTFQLLKLWKHQNRDQEMVKKIIQDIDLCESSVQRHIGHANLTTEQLRILMESLPGKKISPDEIERTRKTCKPSEQLLKLLSLWRIKNGDQDTLKGLMYALKHLKAYHFPKTVTHSLRKTIRFLHSFTMYRLYQKLFLEMIGNQVQSVKISCL
# notes: Expressed from the rat cDNA under a hepatocyte control element in transgenic mice; Analysed in liver extracts and serum; also called HE-OPG transgene product
# B4: huOPG [22-401] (receptor)
# chain: ETFPPKYLHYDEETSHQLLCDKCPPGTYLKQHCTAKWKSVCAPCPDHYYTDSWHTSDECLYCSPVCKELQYVKQECNRTHNRVCECKEGRYLEIEFCLKHRSCPPGFGVVQAGTPERNTVCKRCPDGFFSNETSSKAPCRKHTNCSVFGLLLTQKGNATHDNICSGNSESTQKCGIDVTLCEEAFFRFAVPTKFTPNWLSVLVDNLPGTKVNAESVERIKRQHSSQEQTFQLLKLWKHQNKAQDIVKKIIQDIDLCENSVQRHIGHANLTFEQLRSLMESLPGKKVGAEDIEKTIKACKPSDQILKLLSLWRIKNGDQDTLKGLMHALKHSKTYHFPKTVTQSLKKTIRFLHSFTMYKLYQKLFLEMIGNQVQSVKISCL
# notes: Recombinant polypeptide from CHO cells
# B5: muOPG [22-401] C195S (receptor)
# chain: ETLLPKYLHYDPETGHQLLCDKCAPGTYLKQHCTVRRKTLCVPCPDHSYTDSWHTSDECVYCSPVCKELQSVKQECNRTHNRVCECEEGRYLEIEFCLKHRSCPPGSGVVQAGTPERNTVCKKCPDGFFSGETSSKAPCIKHTNCSTFGLLLIQKGNATHDNCCSGNREATQKSGIDVTLCEEAFFRFAVPTKIIPNWLSVLVDSLPGTKVNAESVERIKRRHSSQEQTFQLLKLWKHQNRDQEMVKKIIQDIDLCESSVQRHLGHSNLTTEQLLALMESLPGKKISPEEIERTRKTCKSSEQLLKLLSLWRIKNGDQDTLKGLMYALKHLKTSHFPKTVTHSLRKTMRFLHSFTMYRLYQKLFLEMIGNQVQSVKISCL
# B6: muOPG [22-401] C277S (receptor)
# chain: B5 chain with S174C, C256S
# notes: Expressed in 293 cells from pcDNA3.1-muOPG
# B7: muOPG [22-401] C202S (receptor)
# chain: B5 chain with S174C, C181S
# notes: as for B6
# B8: muOPG [22-401] C400S (receptor)
# chain: B5 chain with S174C, C379S
# notes: as for B6
# B9: muOPG [22-401] C319S (receptor)
# chain: B5 chain with S174C, C298S
# notes: as for B6
# Target: the molecule itself
# Assay: homodimerization; non-reducing SDS-PAGE and western blot with anti-OPG antibodies
# Procedure: Each resulting muOPG-CT plasmid containing the appropriate truncation was then transfected into human 293 cells, the mutant OPG-Fc fusion protein purified from conditioned media as described above. The biological activity of each protein was assessed the in vitro osteoclast forming assay described in example 11. The conditioned medias were also analysed by non-reducing SDS-PAGE and western blotting using anti-OPG antibodies.
row,Protein,binding result
1,B1,no binding
2,B2,no binding

# Target: the molecule itself
# Assay: self-association; nonreducing SDS gels
row,Protein,binding result
1,B3,binds
2,B4,binds

# Target: the molecule itself
# Assay: homodimerization; non-reducing SDS-PAGE and western blot; the number is the monomer share
# Procedure: The biological activity of each protein was assessed the in vitro osteoclast forming assay described in example 11. Conditioned media from each transfectant was analysed by non-reducing SDS-PAGE and western blotting with anti-OPG antibodies.
row,Protein,percent monomeric [%]
1,B5,> 90
2,B6,> 90
3,B7,> 90
4,B8,> 90
5,B9,> 90
